# Measured values published in the DeepSol protein solubility set.
# Assay: soluble on expression in E. coli; label from the status in PepcDB or PDB records
row,Sequence,soluble on expression in E. coli
1,MPKGSGKVIAQNKKAFHDYFIEETYEAGLVLQGTEIKSIRAGRVNLKDAFARVHNGEVWVHNMHISTYEQGNRFNHDPLRTRKLLLHKKEIEKLAGASKETGYALVPVRIYLKNGFAKMALGLAKGKKQYDKRHDLKEKEAKREIARAFRDRQKM,not soluble
2,MSWFISRKDIAYISRGAKLLGCGGGGDTKTTQRLLESIMKEDDQINVLQYEDLTEQVVATVCFAGSPILYEEQLPRGDEGQMVFQEYQLKTNKKIDAVISAEIGGMNALIPLVVALQTGCAVVDGDGMGRAFPEFTMTTFYMHGLPISPLILLTRDGKQHLIEGAANDRIVRDNRQLLNMHGGFGHFICCGADANVVKNMMVSGTLKLAYRLGRAMEQDQLSAAAGWTAVEDEWENSIYGKPTLLIKGTVESVVRTFDQEQIVGELTIIGKQRFIGTTLTVSFHNEFIAVKKEGQYLVMVPDLIIIVNAKTFLPYTTNEIQRGMSVLIYAIPAPNVLRQKQMIDHVGPQAYGLDVPYEPFFLEHHHHHH,not soluble
3,MSLRIKVCGIKRVEDAVMAAYCGADAIGLVVGRKHNSDDFIDKHLAQKIVRECPPYISPVLVTELDDAEEISGLVHETGVTSVQLHSDCTVDSIISLRKTFPNIKIIKNFHVIGPGVIHAMKPFESVVDAFILDTLDLANDKVGSTGLVHDWSISRKIVKEVSRPVILAGGLTPENVGEAIRVVNPYGVDASSGLKDSNGFKDEMKVINFVHRAKNDFFKVRNLSLENEGHHHHHH,soluble
4,MGSDKIHHHHHHMSPKAAIHNRSGSFSDRWIAYCQQRNIPYKTVDCHSSDIIEELADCSFLMWNWSQTYAEDMLIARGLIKAVESMGIRVFPNSETCWHFDDKVAQKYLMEALGVPMVKSYVFLDRARALEWARKTEYPKVFKLRGGAGSSNVFLVNDINKAERLINKAFSTGFPPVSRWNALSERWWQFKRDKTFISFFNISRGIFRALIKNPTLERLPVQRNYAYFQDFVPDNDSDIRVIAIGKRAFGIKRMVREGDFRASGSGKILYDPELIPEACIRMTFDLAKKTRSQSLVLDFIFSDGSPLVVEMSYAFASHGYLSCPGYWRNDMTWVEGSFHPEDFMVDDLIVSSVERS,not soluble
5,MAHHHHHHMTESTHLIDAGCFISQMNELVLIDPLYMNYVITNYFNYLINDKNELLPKESLNGVYFENAKPGLWSSFAIKEKNIFLPNSQKMEQNMIDLGIDKNYGNEIITSFACFNNTEFMHEYLTVEKLNELKWEKFESNINCIGNHNNGNIYKSQSKEEDKPINFSNYFTNILTVESGQVGLFCTESIKNCTNALLEKYEIYDIKNKEELDNFFNKNMNDLYPWYNKICNLTLSSSITIIDYIDMPLGSVCMSGSDCVSNYLCEVVKDDITGEIWAIRVNFFNPFK,soluble
6,MEKVEHLNLNIQNILEDVDIDTASSSSDDEPEQAVVKQEKLEAGEQIEEQYDTDSDYDDDIVEFAEATGDFTKKLNAARLNTIGPNAARNRLTVDVERHADTSEDRKRKRVKDRADRATVEQVLDPRTRLVLFRLLQRGTLLNIDGCISTGKEANVYHATGTDNDLAIKIYKTSILTFKDRERYVTGEFRYRHGYCKSNPRKMVAVWAEKEMRNLARMHEVGLPVPKPHLLKGHVLVMDFLGKDGWPAPLLKNANLSQEDAEPMYVGLVRDMRRLYRECKLVHADLSEFNMLVHDGKLWIIDVSQSVEQDHPHALEFLRMDCNNVNKFFRELGVPVLSVRRLFEVIVDPLMSSKEMETIIEEERVLVNSEDDSLFMNAFIPHKLEHVLHFERDGKLAKEGVEANNPFQNIVSKIDLKGDGFGEEHDDSDDNDDEENGKKSRKKRAEPTEEEIQEKERKIAMHTRNREETAEERKERKAAVKEEKREQRKEKIPKHLKKRAHRQHMKYQSSPWSTLINCLHTLVP,not soluble
7,NSAHQFHNQQEGEHYILAGYPWFKCRARDMFISLPGLTLALEEVDQFEDVMKTAEKAIRSFINDEPAGYKIYEMEHPDVLLWAVWALQQYAKETSREQCRQKYGELLKDIIEFIRQRKHENLFLHENGLLYANGTDKAITWMNSTVNGHPVIPRTGYIVEFNALWYNALRFVADLVREDGNVLLADALDAQAEVTGKSFIEVFRNEYGYLLDYVDGNMMDWSVRPNMIFAVAFDYSPLDRAQKKQVLDIATKELLTPKGLRTLSPKSGGYNPNYVGPQIQRDYAYHQGTAWPWLMGFYMEAYLRIYKMSGLSFIERQLIGLEDELTIHCISSLPELFDGNPPFKGRGAVSFAMNVAEVLRILKLLSKYY,not soluble
8,MAHHHHHHMALLQRVAQVMQEVAPLSLADHSWDNVGVLLESPAPNKSNAIMLTIDLTPEVMEECLEKNVEVILAYHPPLFRPVKRLTLQDPKQRIILQAASAGMSIYAPHTSLDAAEGGINDWLASLVAGDGAYTASPIQPTSSYAPNAAEATKATGMGRLVKLKEEVEFCSMVGSLKQQLGLATVRVALPDSWEPSHKVSSVALCAGSGTSVFRLLRLPVHVLLSGEMSHHDVLAATAAGQAVILCEHTNTERGFLKAVLQRTLQAKLEGTTVLVSDKDSDPLTAW,soluble
9,MGSDKIHHHHHHMRKDDVVIVTCAITGAIHTPSMSPYLPVTPDQIVEEAVKAAEAGAGMVHIHARDPKDGRPTTDVEVFRYICREIKKQSDVVINVTTGGGGTLGIPVEERAKVVPALKPEIATFNMGSMNFAIHPLLKKYKEFKYDWEPEYLEMTRDIVFRNTFKDLEALSRIFKENDTKPELECYDIGQIYNTAFMFHEGYLEPPLRLQFIHGILGGIGTAVEDVLFMKQTADRLIGRENYTWSLVGAGRFQMPLGTLAVIMGGDVRVGLEDSLYIERGKLAKSNAEQVEKMVRIVKELGKRPATPDEVREILGLKGKERVNF,not soluble
10,MGSDKIHHHHHHMPNNALLQIKQDTLSLIDDLKVICTSFGLGNDGNEYKIITQCFLYKFLCDKFEFLFEQEFPNQTIQDYKDFNKEEKEEFFITLTDKRLPKLAYDDLLNYLFEKHFNDNDLHLKLDIIFNRISSNNAELFNTTSTDKTTIALFESISQYINEESKRANFTRVLLDKLKKFNFKQAFLNLQNQQGYDFFAPIFEYLLKDYNNAGGGKYAEYYTPLSIASIIAKLLINEPTRNVKIYDPSAGTGTLLMALAHQIGTDSCTLYAQDISQKSLRMLKLNLILNDLTHSLRNAIEGNTLTNPYHSKDFKGKMDYIVSNPPFKLDFSNEHAEISQNKNDFFLGVPNIPKNNKSKMPIYTLFFQHCLNMLSNKGKGAIIVPTGFISAKSGVENKIIRHLVDERLVYGVVCMPSQVFANTGTNVSIIFFQKTPSAKEVVLIDASKLGEEYTENKNKKTRLRPSDIDLILETFQNKTKKSDFCALVSFDEITEKIIL,not soluble
11,MGSSHHHHHHSSGLVPRGSHMSLKHFLNTQDWSRAELDALLTQAALFKRNKLGSELKGKSIALVFFNPSMRTRTSFELGAFQLGGHAVVLQPGKDAWPIEFNLGTVMDGDTVEHIAEVARVLGRYVDLIGVRAFPKFVDWSKDREDQVLKSFAKYSPVPVINMETITHPCQELAHALALQEHFGTPDLRGKKYVLTWTYHPKPLNTAVANSALTIATRMGMDVTLLCPTPDYILDERYMDWAAQNVAESGGSLQVSHDIDSAYAGADVVYAKSWGALPFFGNWEPEKPIRDQYQHFIVDERKMALTNNGVFSHCLPLRRNVKATDAVMDSPNCIAIDEAENRLHVQKAIMAALVGQSRP,soluble
12,PFRLHATYDESISRMLDVFEKVDRDIPFNGLPWFFDHAETISPKNIERVRALGGGIAIQDRMAFQGEYFVERYGAKAAEMTPPIQRMLAEGIPVGAGTDATRVSSYNPWTSLYWMVSGRTVGGLELYPQGLSRDTALELYTHGSAWFSSEQGKKGQIKVGQLADLVALSADYFSVEEEAIKWIESLLTVVDGKVVHAAGDFDQLAPPSLPVTPDWSPVAKVPGHWKPGAPLQNQVHQCSGPCAVHAHGHQKARMSNVPVSDFQGFWGAFGCSCFA,not soluble
13,MLDVKSQDISIPEAVVVLCTAPDEATAQDLAAKVLAEKLAACATLLPGATSLYYWEGKLEQEYEVQMILKTTVSHQQALIDCLKSHHPYQTPELLVLPVTHGDTDYLSWLNASLR,not soluble
14,MDIRARTKIIDIYSNLKYKKPLKSFQKILTTSDSDNCEDFFNIGLNIDKNKITAIGFDGDGCIISTIATELSIKAIENKTINQAKKILSDLIATYKDKNSANQVVEELKLLIEMNVTEKRLQCLLLTPSNLLQWFKNF,not soluble
15,MGSDKIHHHHHHMVMEVIKVKYKAFDVGAVSYNTDTQMGSFEYFPSFIKTGIELSPIKMPLAKNIYSFPQLDQNTFKGLPGLIADSLPDDFGNAVMNAWIASQGKSTSDITPLQRLQYTGMRGMGALTYSPATKRKNLNASQPIHIESLVSIAQDVLDKRQQFSVDLENNGQEDKEAMMSLMSVGMSAGGARPKAVLAFNNDLTQVRSGQTDAPEGFTHYLMKFDGVSEHNKNQETFGDPMGYGAMEYTYHILAKECGIDMMPCHLLNEGKRRHFITERFDRNGNDKIHVQTLNGLEHVSYKQIGSYSYAELFNTARKLKLSPDDAMQLFKRMVFNVISRNHDDHAKNFGFMLDKDHKWQLAPAYDLAYSYKPDSHWVSKHWMTLNGKQDNFTRDDFYSFEKLSPIFSKRKIDDVLNQTIEAVSQWDKYAAEHAVPNSLIKEISQNLRLFL,not soluble
16,MGHHHHHHSHMISSNIREARTVILPRLMLEITSNGTLTVASHTPIFQKLSLLDLPSLTAHLKTKLSGSMFKGFLFATLCETEDHVTTLDMHPHVFEKRLVLYNPRNTCNKELCALISMVENLMDCDPKLPLSIYMRGKRLFQKNPGKDSCFLFKGLSTLISTHFAVYHPNFTVNDELLLPPLLAYKMHSTIEGIDEVSKGLLKAIYLDSYRMDNNIDDFQNPAGTFTLLCLPTIFTKHLTVPNVLILIKRAGLMYEAIDNIIL,not soluble
17,MGSDKIHHHHHHMSVNGSQRVDLEVVANLIPPQSRVLDVGSGDGSLLELLQDTKQVDGRGLELSQRGVNECVARGLSVIQGDADKDLEFYPDKGFDFVVLSQTLQATRNPKLVLDELLRIGNRAIVSFPNFGHWRVRLSLFVKGRMPVTQDLPYSWYDTPNIHFCTIRDFVNLCEELGATVEKATALDAAGQKIGLSMPWWFWNFFGQQAVFLLKRN,not soluble
18,MSHLLTMSELSEVEISEILKDAEDFANGKESKTTEQTFVANLFFENSTRTRFSFEVAEKRLGLDVLNFSADASSVQKGETLYDTIRTLESIGTKAVVIRHEQDRYFDELKDQVNIPILNAGDGCGNHPTQCLLDLLTIKQEFGRFEGLKIAIVGDVRHSRVARSNAEALTKLGATIYFASPEEWKDEDNTFGTYKPLDELVPEVDVMMLLRVQHERHDHYETDIMKEYHEKHGLTVEREKRMKEGSIIMHPAPVNRDVEIASELVECERSRIFKQMENGVYVRMAVLKRALPNVLGGMKHELFV,not soluble
19,MAARKLIARINPTNSALFVCDLQEKFASNIKYFPEIITTSRRLIDAARILSIPTIVTEQYPKGLGHTVPTLKEGLAENTPIFDKTKFSMCIPPTEDTLKKVQNVILVGIEAHVCVLQTTYDLLERGLNVHVVVDAVSSRSHTDRHFAFKQMEQAGAILTTSEATILGLVGGSDHPKFKEVQKLILTSAPDTGLVPLSKL,soluble
